The results in this text go back to patent publication US20180044434A1.

For assay [1], the target named is T1, Ala mutant of TA0096, SEQ ID NO: 32.
T1 sequence (peptide): EENMDAQWMQDEMEIGY
Briefly: ELISA, coated peptide. On the technique in general: In an ELISA, binding on a coated surface is turned into a signal by an enzyme label.

Assay [2] deals with T2, Ala mutant having 3-amino acid substitution, SEQ ID NO: 46.
T2 sequence (peptide): EENMDDAAAQDEMEIGY
Kind of assay: ELISA, coated peptide.

In the case of “anti-dinitrophenyl (DNP) antibody (negative control)”, the OD 490/630 nm worked out at 0.012 in assay [1] and 0.052 in assay [2].
